From publication PMC4446944, “The maize cytochrome P450 CYP79A61 produces phenylacetaldoxime and indole-3-acetaldoxime in heterologous systems and might contribute to plant defense and auxin formation” (BMC Plant Biology, 2015)

Experiments:
[1] = substrate: N[C@@H](Cc1ccccc1)C(=O)O; assay: yeast microsomes, LC-MS/MS of (E/Z)-phenylacetaldoxime formed; format: biochemical, Zea mays; conditions: 1 mM NADPH, 75 mM sodium phosphate pH 7.0, 25 °C, 30 min, microsomes with Arabidopsis CPR1
[2] = substrate: N[C@@H](Cc1c[nH]c2ccccc12)C(=O)O; assay: yeast microsomes, LC-MS/MS of (E/Z)-indole-3-acetaldoxime formed; format: biochemical, Zea mays; conditions: 1 mM NADPH, 75 mM sodium phosphate pH 7.0, 25 °C, 30 min, microsomes with Arabidopsis CPR1

B1: CYP79A61 (Zea mays subsp. mays) (protein)
chain: MVSSPQANKFPLRKQISSPSSSCMAPHVLLVLVILLYLVRTLRPWRSRRNSTCCTPSLPPGPVPWPVVGNLPEMMLSDKPAFHWIHHIMKEAGTDIACIKLGGVHVIPISCPKIALEVLSNQDANFASRPLTFASKTFSTGYRDAAMSHCGDHWKKMRRVLASEIVCPSRHRWLHDKRADEADNLTRYVYNLATKAGSSGAVDVRHIARHYCGNVVRRLMFNTRYFGKPQPDSGPGPLEVQHVDAVFTSLGLLYSFCVSDYLPWLLGLDLDGHEKMVKEANERVTRLHDAVIDERWRLWKSGERRELEDFLDVLIMLKDAEAGRPVLSIEEVKALLMDITFASMDNPSNAVEWALAEMVNNPTMLKKAVDEIDSVVGQERLVQEHDIPRLNYTKACIREAFRLHPVAPFNVPHVAVADATVAGYRIPKGSHVILSRTGLGRNPDVWDDPLRFDPERHIPLSPEMEVSLVERDLRFISFSTGRRGCIAAALGTDMTIMLFGRLLQGFSWSKMTGVAAIDLSESRHNTFMARPLVLQAKPRLPAHLYPGILLCK
notes: complete open reading frame, untagged as far as told, pESC-Leu2d, Saccharomyces cerevisiae WAT11 microsomes with Arabidopsis CPR1
- Km [1]: 117.2 ± 6.0 µM
- Km [2]: 150.2 ± 9.2 µM
